Laboratory results taken from paper PMC11324310.

Target: C-t FLAG-tagged WT-RELN (mouse) (UniProt Q60841)
Experiment: immunoblot in non-reducing conditions (SDS-PAGE); culture media of HEK293T cells coexpressing FLAG-WT-RELN and monoallelic variants; non-reducing conditions

stoichiometry N: 2
Substance: C-t FLAG-tagged WT-RELN, Q60841 27-3461
